Results taken from a protein production outcome set (Wang et al. 2014).

Assay: label from the status in PepcDB records

Sequence	protein production
MVTGMFSLGRTYLFRVPEGEELLTYIKNFCKKEGIETAIINGIGTLKNPKIGYFLEEKKEYKVIPLKGSYELISLIGNVSLKDGEPFVHAHVSLGNEEGIVFGGHLVEGEVFVAEIFLQELKGEKIERKPTKYGLALWEELKLLEHHHHHH	not failed
MVTLLVLRMISAITRKTPVKTLSKRSKTFNETAGGEGGGGAIKLITINVHIRYSFTMITISQYFHLVDELRNCTRKVWSTYPKELIELLRDSMVTH	failed
MVVAVYPGTFDPLTRGHEDLVRRASSIFDTLVVGVADSRAKKPFFSLEERLKIANEVLGHYPNVKVMGFTGLLKDFVRANDARVIVRGLRAVSDFEYEFQMAGMNRYLLPDVETMFMTPSDQYQFISGTIVREIAQLGGDVSKFVFPSVEKWLTEKVAAMAQGPSA	not failed
MVVETIERSCEGSKRRHVNGGDIAVPCSGEECSNGDINVAPGVSAKRARVSREMTFEDIYGADALLNDDDDEDDDCDWEPVQAPMEFVKWCCVNCTMSNPGDMVHCCICGEHKESGILRHGYLASPFFKDTGLIEVEEKYGGSSSATSSTAVGFDERMLLHSEFEVKAQPHPERPDRLRAIAASLATAGVFPGRCLPINAREITKQELQMVHTSEHVDAVDTTSQLLYSYFTSDTYANEYSARAARLAAGLCADLATDIFTGRVKNGFALVRPPGHHAGVRHAMGFCLHNNAAVAALVAQAAGAKKVLIVDWDVHHGNGTQEIFEQNKSVLYISLHRHEGGNFYPGTGAADEVGSNGGEGYCVNVPWSCGGVGDKDYIFAFQHVVLPIASAFSPDFVIISAGFDAARGDPLGCCDVTPAGYSRMTQMLGDLCGGKMLVILEGGYNLRSISASATAVIKVLLGENPENELPIATTPSVAGLQTVLDVLNIQLEFWPSLAISYSKLLSELEARLIENKSEKSDEKEGCSGSDMVEMGTKEAFVQLSLGSYDFKIKVILESILPNPS	failed
MVVHGGAAYIRAMDHLPVDPARYGAFLVAMFVMAITPGPANLFAIATGMEKGKGAALAGVAGMNCATLIWFIGSALGLGALIIAFPQAFHLLALAGAAYLVWLGLKSLWAGWKNAESHAVAAVRGGKSAFVDGFAVQIANPKALLFFTAVLPPFLDVDRPLVPQLLMFACATIGMDLISMSAYGVGGAALSDRMNEPGFRRGFAILVGVLLITAAGLIVSRG	failed
MVVKASGGSSVARPQLYQTVPVSTIIQAEQQDRFLNRGELDELAVYLRSGAKRLEIATTLTRNADIIVSRAANRIFVGGSPMAFLSRPQTEEAPQFTTGARGEAIDIKEAMKLGTATYVDTRGGFLEGLRSIFSASSGGAPVGFKPINIARYGPARMEKSLRDLDWFLRYTTYAIVAGDPNILAVNTRGLREIIEAACSSDATIAALQEMRRAALSYFEKDAEAKGIVETYFDVLINEFIAPAPSDKVRQRNSTDLQGLQLPQIYFNAAERRPKFVMKPGLSAAEKNEVVKAAYRQIFERDISRAYGLGISDLESKVKNGSISMKEFIRQLAKSPLYRKNFYEPYINSRALELAFRHILGRGPSSREEVQTYFAIISKGGLPALVDALVDSKEYSDYFGEETVPYLRGLGQEAQECRNWGAQQDLFKYSAPFRKVPQFITTFAAQDQPLPDQHPYGSGNDPLEIQFGAIFPKEKKNPSARPQPFNKDTRRILIARGPGINNQVSNPGARGLTPGTLGPKVFKLDQLPSINARIGKRSIATGTDSVKFAESSTQRVIRAAYLQVFGRDVYEGQRQKVAEIKLENGEISVREFVRILAKSNLFRSLYWTPLYVTKAIEYIHRRLLGRPTYGRQEMNAYFDIASKKGLYGLVDAIIDSQEYSEAFGEDTVPYERYITPQGLALRSLRVGTIGETGVPPEKEETPRFVELGAVTELRTEPAIQFRANQGVSKRREQTKVFKLTDLNDKQNLQLVIQAAYRQVFERDVAPYIVRDEFTALESKLSNGEITLKEFIEALGCSELYQKEFYTPYPNTKVIELGTKHFLGRAPLDQAEIRRYNQILATQGLKAFVQALVSSAEYAQAFGEDTVPYRRFPTLPAANFPNTEKLHNQLTKQSDAIVVPSFAPVKPRLDNTKLPLLSRAIAEQEAKARQADPSKPRFIELGRSFRNGDGQSVEVGVGTTRRRPARIFRMTVGAPSAEVELVINAIYCQVMDVFSGQVPSQFRRPDLESRLRNGEITVREFVRTLASSEIYRNRFYTPYPNTKVIEFLFRHLLGRAPATQAEIRQYNKILADQGLKTAVETMVNSPEYSRYFGEDVVPYKRFPTLPAGNYIGSVKADADLVKQSWSSLSPSLVGIQPSHRD	failed
MVVLKKMIGLVVVLSVLLARDNPFEPEINSKNLQGGFNGIYDSYFKEIHVDLPTSARILKQITLTYQDIDGSIHSKVVGIDKGIDWHYPLKLSQHTLDPAAFEKRYQIQDFDFLMASNTMILRSPYKILRSFVLVNPYRIVLDTQKGPLDIYQNMDLNQKFFSHIKVGTHKDYYRITLILDGKYRYLLEEKNGAYELKLK	failed
